Measurements published in patent US9969998B2, “Compositions of adenosine deaminase-2 (ADA2), variants thereof and methods of using same” (Halozyme, Inc., priority 2014, dated 2018).
Values joined by “and” are separate entries in the source; they are usually repeats but may differ in a detail not shown here. Identical values can stand only once.

Experiments:
NK/T cells = assay: Adenosine-mediated inhibition of NK/T cell proliferation (Cell Titer Glow); format: cell-based, human; settings: 5 days
Experimental: A mixture of NK and T cells (NK/T) were prepared from healthy donor's peripheral blood mononuclear cells (PBMC). Briefly, 10×10^7 HumanPBMCs were cultured for 6-7 days in Stem cell growth medium (SCGM; Order No. 20802-0500, CellGenix, Freiburg, Germany) with 5% human serum from donors with blood type AB (human AB serum; Cat. No. 35-060-C1, Mediatech, Mannassas, Va.) in the presence of 20 ng/mL anti-CD3 eBioscience, San Diego, Calif.; Cat. No. 16-0039) and 500 IU/mL recombinant human interleukin 2 (rhIL-2; Cat. No. 200-02, PeproTech, Rocky Hill, N.J.). The cells were then cultured for an additional 2-3 weeks in SCGM in the presence of 500 IU/mL rhIL-2. NK/T cells cultured for 2-4 weeks were used in experiments.
To test the adenosine-mediated inhibition of NK/T cells proliferation, NK/T cells (10,000 cells/well) were plated in a 96 well white plate with clear bottoms in 200 μL volume. The cells were treated with 20 μL adenosine (SKU No. A925, Sigma Aldrich) at concentrations resulting from a 3-fold dilution series starting at 1 mM, i.e. 1 mM, 300 μM, 100 μM, 30 μM, 10 μM, 3 μM, 1 μM, 0.3 μM and 0.1 μM. The NK/T cells were allowed to grow for 5 days in a humidified tissue culture incubator at 37° C. with 5% CO2. After 5 days of treatment, the cells were centrifuged in a 96 well plate at […] for 5 min. 100 μL of medium was removed from each well of cells, followed by addition of 100 μL of Cell Titer Glow (CTG) reagent (Cat. No. G7570, Promega, Madison, Wis.) and incubated at room temperature for 15 min before measuring luminescence on the SpectraMax M3 plate reader according to the manufacturer's instructions. The mean cell survival (%) was determined by comparison of the measured luminescence to control cells not treated with adenosine

[1] = Distribution of labeled PEG-ADA2-K374D in CT26 peritibial tumors (IVIS fluorescent imaging); format: in vivo, Balb/C mice; settings: for Fluorescent intensity at tumor: 0.5 mg/kg IV
Experimental: To assess the distribution and elimination of administered PEG-ADA2-K374D in the tumor microenvironment or in normal organs, immunofluorescence was used to assess the presence of PEG-ADA2-K374D administered to mice. PEG-ADA2-K374D was labeled at room temperature for 60 minutes with DyLight755 Sulfydryl-Reactive Dye (DL755), a near-IR fluor, using the DyLight 755 Antibody Labeling Kit (Thermo Scientific, Rockford, Ill.). Alexa Fluor 750 (AF 750) labeled bovine serum albumin (BSA, 1 mg/mL) was purchased from (Life Technology, Carlsbad, Calif.).
CT26 syngeneic tumors were produced by injecting 2×10^5 cells in 0.05 mL injection volume per animal into the right peritibial muscle of male Balb/C mice. When average tumor size reached 600 mm^3, tumor-bearing mice were staged into 2 groups (n=4/group) to receive either PEG-ADA2-K374D^DL755 at 0.5 mg/kg or BSA^AF750 at 0.5 mg/kg intravenously. The distribution of DL755 labeled PEG-ADA2-K374D (PEG-ADA2-K374D^DL755) and AF 750 labeled BSA (BSA^AF750) in mouse tumors was assessed using the IVIS Caliper fluorescent imaging system with an excitation wavelength of 745 nm and an emission wavelength of 800 nm (Caliper Life Sciences, Alameda, Calif.) and signal intensity was measured with LivingImage software. Images were captured before administration of labeled proteins and at 10 minute, 2, 6 hours and daily after administration of labeled proteins.

[2] = Kinetic assessment of adenosine deaminase activity (ammonia assay, Michaelis-Menten); format: biochemical; settings: for Km / Vmax / kcat: [E] = 8.5 nM; for kcat: kcat=Vmax/0.0085/60
Method in brief: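 Coupled ammonia assay: rHuADA2 WT or variants (1 μg/mL, 17 nM in 2× mix) with adenosine 20 μM–20 mM, α-ketoglutarate, NADPH and GDH, at pH 7.6 or pH 6.5 (PIPES), room temperature. Michaelis-Menten fit gave Km, Vmax, kcat, kcat/Km.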

[3] = system: adenosine in tumor extracellular matrix; assay: Adenosine in MH194+PSC4 tumor extracellular matrix (microdialysis, LC/MS); format: in vivo, mice; settings: for Adenosine concentration in ECM, Mean: n = 8; for Adenosine concentration in ECM, individual tumors: single animal values; for adenosine concentration in tumor ECM: 0.03 mg/kg
Experimental: To assess the effects of PEGADA2 on adenosine in tumor extracellular matrix, mice bearing peritibial MH194+PSC4 tumors received vehicle, the polypeptide whose sequence is set forth in SEQ ID NO:20, which contains the amino acid replacement K374D (Zavialov numbering; K371D mature numbering), at 0.03 mg/kg, or the polypeptide whose sequence is set forth in SEQ ID NO: 273, which contains the amino acid replacements R222Q/S265N (Zavialov numbering; R219Q/S262 mature numbering), at 0.03 mg/kg, 24 or 48 hours prior to microdialysis. Each of the polypeptides were PEGylated as described above in Examples 8 and 22). The mice were anesthetized using isofluorane, and a heating pad was used to maintain body temperature. A small incision was made on the tumor. A microdialysis probe with 55,000 Da molecular weight cut-off (CMA, Stockholm, Sweden) was inserted into the tumor, via a guided cannula. The length of the microdialysis probe used in this study was 10 mm. Once the probe was in position, the cannula was withdrawn leaving the probe completely embedded in the tumor tissue. Dulbecco's phosphate buffered saline (DPBS; Thermo Fisher Scientific) with ADA inhibitors (Pentostatin and 5-iodotubercindin) was perfused through the probe at a flow rate of 1 μl/min for 30 minutes. Then the samples were collected at a flow rate of 0.5 μl/min for 60 minutes. Microdialysis perfusates were analyzed by Liquid chromatography-mass spectrometry (LC/MS) at MicroConstants (9050 Camino Santa Fe, San Diego, Calif. 92121).

Nc1ncnc2c1ncn2[C@@H]1O[C@H](CO)[C@@H](O)[C@H]1O [Adenosine, adenosine]
IC50 (NK/T cells; Homo sapiens, NKT, 120 h): 16.2 µM
Mean Cell survival (%) (NK/T cells; adenosine 0.1 μM): 106.67%
Mean Cell survival (%) (NK/T cells; adenosine 0.3 μM): 101.19%
Mean Cell survival (%) (NK/T cells; adenosine 1 μM): 121.11%
Mean Cell survival (%) (NK/T cells; adenosine 3 μM): 110.07%
Mean Cell survival (%) (NK/T cells; adenosine 10 μM): 70.33%
Mean Cell survival (%) (NK/T cells; adenosine 30 μM): 36.84%
Mean Cell survival (%) (NK/T cells; adenosine 100 μM): 26.01%
Mean Cell survival (%) (NK/T cells; adenosine 300 μM): 13.65%
Mean Cell survival (%) (NK/T cells; adenosine 1000 μM): 15.82%

BSA^AF750: Alexa Fluor 750 (AF 750) labeled bovine serum albumin, control agent
Fluorescent intensity at tumor ([1]; Hour 0.2): 2.95E+09
Fluorescent intensity at tumor ([1]; Hour 2): 3.92E+09
Fluorescent intensity at tumor ([1]; Hour 6): 4.64E+09
Fluorescent intensity at tumor ([1]; Hour 24): 3.18E+09
Fluorescent intensity at tumor ([1]; Hour 48): 1.94E+09
Fluorescent intensity at tumor ([1]; Hour 72): 1.30E+09
Fluorescent intensity at tumor ([1]; Hour 96): 9.86E+08
Fluorescent intensity at tumor ([1]; Hour 144): 7.78E+08
Fluorescent intensity at tumor ([1]; Hour 168): 6.39E+08
Fluorescent intensity at tumor ([1]; Hour 196): 6.59E+08
Fluorescent intensity at tumor ([1]; Hour −1 (before administration)): 7.86E+08
eliminated from tumors ([1]; day 6 post injection, 0.5 mg/kg intravenously): ~100%

B1: R222Q/S265N: ADA2 combination variant SEQ ID NO:273 (protein)
chain: IDETRAHLLLKEKMMRLGGRLVLNTKEELANERLMTLKIAEMKEAMRTLIFPPSMHFFQAKHLIERSQVFNILRMMPKGAALHLHDIGIVTMDWLVRNVTYRPHCHICFTPRGIMQFRFAHPTPRPSEKCSKWILLEDYRKRVQNVTEFDDSLLRNFTLVTQHPEVIYTNQNVVWSKFETIFFTISGLIHYAPVFRDYVFRSMQEFYEDNVLYMEIRAQLLPVYELSGEHHDEEWSVKTYQEVAQKFVETHPEFIGIKIIYNDHRSKDVAVIAESIRMAMGLRIKFPTVVAGFDLVGHEDTGHSLHDYKEALMIPAKDGVKLPYFFHAGETDWQGTSIDRNILDALMLNTTRIGHGFALSKHPAVRTYSWKKDIPIEVCPISNQVLKLVSDLRNHPVATLMATGHPMVISSDDPAMFGAKGLSYDFYEVFMGIGGMKADLRTLKQLAMNSIKYSTLLESEKNTFMEIWKKRWDKFIADVATK
modifications: human ADA2 R219Q/S262N, mature numbering
fold higher catalytic efficiency (kcat/Km) compared to the WT ADA2 ([2]; pH 6.5): 8.2 fold
fold lower Km compared to the WT ADA2 ([2]; pH 6.5): 5.0 fold
Km ([2]; pH 6.5): 800 µM
Vmax ([2]; pH 6.5): 56.75 µM/min
kcat ([2]; pH 6.5): 111.27 s⁻¹
fold higher catalytic efficiency (kcat/Km) compared to the WT ADA2 ([2]; pH 7.6): 15 fold
fold lower Km compared to the WT ADA2 ([2]; pH 7.6): 4.7 fold
Km ([2]; pH 7.6): 1100 µM
Vmax ([2]; pH 7.6): 87.79 µM/min
kcat ([2]; pH 7.6): 172.14 s⁻¹
Adenosine concentration in ECM, Mean ([3]; 24 hours after 0.03 mg/kg): 6.88 µM
Adenosine concentration in ECM, individual tumors ([3]; 24 hours after 0.03 mg/kg): 0.08 µM and 20.54 µM and 1.08 µM and 0.62 µM and 4.94 µM and 21.48 µM and 0.48 µM and 5.80 µM
adenosine concentration in tumor ECM ([3]; 24 hours post treatment): 6.9 µM
Adenosine concentration in ECM, Mean ([3]; 48 hours after 0.03 mg/kg): 9.77 µM
Adenosine concentration in ECM, individual tumors ([3]; 48 hours after 0.03 mg/kg): 13.06 µM and 1.96 µM and 20.36 µM and 20.62 µM and 0.35 µM and 4.15 µM and 14.26 µM and 3.43 µM
adenosine concentration in tumor ECM ([3]; 48 hours post treatment): 9.8 µM
